The stoichiometry N is the number of molecules, sites or subunits per partner or assembly.

Series [1] concerns the molecule itself. In words: AUC.
Series [2] concerns the molecule itself. The series can be described thus: AUC. The source holds these as a separate data set.

B1: Rhizobium etli pyruvate carboxylase R472S (enzyme, UniProt Q2K340 1-1154, looked up)
chain: MPISKILVANRSEIAIRVFRAANELGIKTVAIWAEEDKLALHRFKADESYQVGRGPHLARDLGPIESYLSIDEVIRVAKLSGADAIHPGYGLLSESPEFVDACNKAGIIFIGPKADTMRQLGNKVAARNLAISVGVPVVPATEPLPDDMAEVAKMAAAIGYPVMLKASWGGGGRGMRVIRSEADLAKEVTEAKREAMAAFGKDEVYLEKLVERARHVESQILGDTHGNVVHLFERDCSVQRRNQKVVERAPAPYLSEAQRQELAAYSLKIAGATNYIGAGTVEYLMDADTGKFYFIEVNPRIQVEHTVTEVVTGIDIVKAQIHILDGAAIGTPQSGVPNQEDIRLNGHALQCRVTTEDPEHNFIPDYGRITAYRSASGFGIRLDGGTSYSGAIITRYYDPLLVKVTAWAPNPLEAISRMDRALREFRIRGVATNLTFLEAIIGHPKFRDNSYTTRFIDTTPELFQQVKRQDSATKLLTYLADVTVNGHPEAKDRPKPLENAARPVVPYANGNGVKDGTKQLLDTLGPKKFGEWMRNEKRVLLTDTTMRDGHQSLLATRMRTYDIARIAGTYSHALPNLLSLECWGGATFDVSMRFLTEDPWERLALIREGAPNLLLQMLLRGANGVGYTNYPDNVVKYFVRQAAKGGIDLFRVFDCLNWVENMRVSMDAIAEENKLCEAAICYTGDILNSARPKYDLKYYTNLAVELEKAGAHIIAVKDMAGLLKPAAAKVLFKALREATGLPIHFHTHDTSGIAAATVLAAVEAGVDAVDAAMDALSGNTSQPCLGSIVEALSGSERDPGLDPAWIRRISFYWEAVRNQYAAFESDLKGPASEVYLHEMPGGQFTNLKEQARSLGLETRWHQVAQAYADANQMFGDIVKVTPSSKVVGDMALMMVSQDLTVADVVSPDREVSFPESVVSMLKGDLGQPPSGWPEALQKKALKGEKPYTVRPGSLLKEADLDAERKVIEKKLEREVSDFEFASYLMYPKVFTDFALASDTYGPVSVLPTPAYFYGLADGEELFADIEKGKTLVIVNQAVSATDSQGMVTVFFELNGQPRRIKVPDRAHGATGAAVRRKAEPGNAAHVGAPMPGVISRVFVSSGQAVNAGDVLVSIEAMKMETAIHAEKDGTIAEVLVKAGDQIDAKDLLAVYGG
modifications: covalently attached biotin prosthetic group on the BCCP domain
B1: in the series “AUC [1]”, the “% tetramer” value came to 72%. Further, in the series “AUC [2]”, the “stoichiometry N” value came out at 4.

B2: Rhizobium etli pyruvate carboxylase R472K (enzyme, UniProt Q2K340 1-1154, looked up)
chain: MPISKILVANRSEIAIRVFRAANELGIKTVAIWAEEDKLALHRFKADESYQVGRGPHLARDLGPIESYLSIDEVIRVAKLSGADAIHPGYGLLSESPEFVDACNKAGIIFIGPKADTMRQLGNKVAARNLAISVGVPVVPATEPLPDDMAEVAKMAAAIGYPVMLKASWGGGGRGMRVIRSEADLAKEVTEAKREAMAAFGKDEVYLEKLVERARHVESQILGDTHGNVVHLFERDCSVQRRNQKVVERAPAPYLSEAQRQELAAYSLKIAGATNYIGAGTVEYLMDADTGKFYFIEVNPRIQVEHTVTEVVTGIDIVKAQIHILDGAAIGTPQSGVPNQEDIRLNGHALQCRVTTEDPEHNFIPDYGRITAYRSASGFGIRLDGGTSYSGAIITRYYDPLLVKVTAWAPNPLEAISRMDRALREFRIRGVATNLTFLEAIIGHPKFRDNSYTTRFIDTTPELFQQVKRQDKATKLLTYLADVTVNGHPEAKDRPKPLENAARPVVPYANGNGVKDGTKQLLDTLGPKKFGEWMRNEKRVLLTDTTMRDGHQSLLATRMRTYDIARIAGTYSHALPNLLSLECWGGATFDVSMRFLTEDPWERLALIREGAPNLLLQMLLRGANGVGYTNYPDNVVKYFVRQAAKGGIDLFRVFDCLNWVENMRVSMDAIAEENKLCEAAICYTGDILNSARPKYDLKYYTNLAVELEKAGAHIIAVKDMAGLLKPAAAKVLFKALREATGLPIHFHTHDTSGIAAATVLAAVEAGVDAVDAAMDALSGNTSQPCLGSIVEALSGSERDPGLDPAWIRRISFYWEAVRNQYAAFESDLKGPASEVYLHEMPGGQFTNLKEQARSLGLETRWHQVAQAYADANQMFGDIVKVTPSSKVVGDMALMMVSQDLTVADVVSPDREVSFPESVVSMLKGDLGQPPSGWPEALQKKALKGEKPYTVRPGSLLKEADLDAERKVIEKKLEREVSDFEFASYLMYPKVFTDFALASDTYGPVSVLPTPAYFYGLADGEELFADIEKGKTLVIVNQAVSATDSQGMVTVFFELNGQPRRIKVPDRAHGATGAAVRRKAEPGNAAHVGAPMPGVISRVFVSSGQAVNAGDVLVSIEAMKMETAIHAEKDGTIAEVLVKAGDQIDAKDLLAVYGG
modifications: covalently attached biotin prosthetic group on the BCCP domain
On to B2, for which the “stoichiometry N” value in the series “AUC [2]” worked out at 4.

B3: Rhizobium etli pyruvate carboxylase R427K (enzyme, UniProt Q2K340 1-1154, looked up)
chain: MPISKILVANRSEIAIRVFRAANELGIKTVAIWAEEDKLALHRFKADESYQVGRGPHLARDLGPIESYLSIDEVIRVAKLSGADAIHPGYGLLSESPEFVDACNKAGIIFIGPKADTMRQLGNKVAARNLAISVGVPVVPATEPLPDDMAEVAKMAAAIGYPVMLKASWGGGGRGMRVIRSEADLAKEVTEAKREAMAAFGKDEVYLEKLVERARHVESQILGDTHGNVVHLFERDCSVQRRNQKVVERAPAPYLSEAQRQELAAYSLKIAGATNYIGAGTVEYLMDADTGKFYFIEVNPRIQVEHTVTEVVTGIDIVKAQIHILDGAAIGTPQSGVPNQEDIRLNGHALQCRVTTEDPEHNFIPDYGRITAYRSASGFGIRLDGGTSYSGAIITRYYDPLLVKVTAWAPNPLEAISRMDRALREFKIRGVATNLTFLEAIIGHPKFRDNSYTTRFIDTTPELFQQVKRQDRATKLLTYLADVTVNGHPEAKDRPKPLENAARPVVPYANGNGVKDGTKQLLDTLGPKKFGEWMRNEKRVLLTDTTMRDGHQSLLATRMRTYDIARIAGTYSHALPNLLSLECWGGATFDVSMRFLTEDPWERLALIREGAPNLLLQMLLRGANGVGYTNYPDNVVKYFVRQAAKGGIDLFRVFDCLNWVENMRVSMDAIAEENKLCEAAICYTGDILNSARPKYDLKYYTNLAVELEKAGAHIIAVKDMAGLLKPAAAKVLFKALREATGLPIHFHTHDTSGIAAATVLAAVEAGVDAVDAAMDALSGNTSQPCLGSIVEALSGSERDPGLDPAWIRRISFYWEAVRNQYAAFESDLKGPASEVYLHEMPGGQFTNLKEQARSLGLETRWHQVAQAYADANQMFGDIVKVTPSSKVVGDMALMMVSQDLTVADVVSPDREVSFPESVVSMLKGDLGQPPSGWPEALQKKALKGEKPYTVRPGSLLKEADLDAERKVIEKKLEREVSDFEFASYLMYPKVFTDFALASDTYGPVSVLPTPAYFYGLADGEELFADIEKGKTLVIVNQAVSATDSQGMVTVFFELNGQPRRIKVPDRAHGATGAAVRRKAEPGNAAHVGAPMPGVISRVFVSSGQAVNAGDVLVSIEAMKMETAIHAEKDGTIAEVLVKAGDQIDAKDLLAVYGG
modifications: covalently attached biotin prosthetic group on the BCCP domain
In the case of B3, in the series “AUC [1]”, the “% tetramer” value amounted to 75%. Further, the “stoichiometry N” value in the series “AUC [2]” was determined as 4.

These data come from paper PMC3567212 (Biochemistry, 2012).
